{"source": "patent US8404644", "about": "(MEAT AND LIVESTOCK AUSTRALIA, dated 2013)", "target": "the molecule itself", "test": "gel filtration on Sephacryl 300 HR at pH 5.3 (self-association, homodimer)", "data": [{"protein": "bovine βB2 crystallin (other, N-terminus acetylated (as extracted from bovine eye), Native intact protein purified from bovine eye lens; Wound Heal 1 = gel filtration at pH 5.3; Wound Heal 2 = 100 kDa retentate plus gel filtration, and also holds some βA3 crystallin; also called Crystallin βB2; Wound Heal 1) ASDHQTQAGKPQPLNPKIIIFEQENFQGHSHELNGPCPNLKETGVEKAGSVLVQAGPWVGYEQANCKGEQFVFEKGEYPRWDSWTSSRRTDSLSSLRPIKVDSQEHKITLYENPNFTGKKMEVIDDDVPSFHAHGYQEKVSSVRVQSGTWVGYQYPGYRGLQYLLEKGDYKDSGDFGAPQPQVQSVRRIRDMQWHQRGAFHPSS", "values": [{"measurement": "binding result", "result": "binds"}]}]}
